Laboratory results from article PMC6638984, “Increased association between Epstein-Barr virus EBNA2 from type 2 strains and the transcriptional repressor BS69 restricts EBNA2 activity” (PLoS Pathogens, 2019).
Substitutions are numbered along the chain they refer to. Names may count otherwise.

T1: BS69 coiled-coil MYND domain (BS69_(CC-MYND), amino acids 480-602) (human, UniProt Q15326-1 480-602)
T1 construct: cloned into pET49b+; also called ZMYND11 CC-MYND; source: E. coli Rosetta 2 (DE3) pLysS, purified (HisPur cobalt resin, 3C protease cleavage, Superdex 75); not shown: GST, N-terminal, cleaved; His6, N-terminal, cleaved
T1 sequence (looked up): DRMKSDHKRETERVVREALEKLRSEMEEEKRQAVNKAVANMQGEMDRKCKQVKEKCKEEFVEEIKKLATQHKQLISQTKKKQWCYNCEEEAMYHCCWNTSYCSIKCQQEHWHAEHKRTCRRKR

B1: type 2 EBNA2 polypeptide T2 EBNA2_(348-422) (domain or fragment)
chain: SMPQLSPVVSLHQGQGPENSPTPGPSTAGPVCRVTPSATPDISPIHEPESSDSEEPPFLFPSDWYPPTLEPAELD
notes: EBNA2 of type 2 Epstein-Barr virus (AG876), amino acids 348-422 (motifs 1, 2 and 3), in pET47b+; also called T2 E2_(348-422); source: E. coli Rosetta 2 (DE3) pLysS, purified (HisPur cobalt resin, 3C protease cleavage, Superdex 75); not shown: His6, N-terminal, cleaved
B2: T2 EBNA2_(348-422) m3 T1 (PTLEP to the type 1 sequence PSIDP) (domain or fragment)
chain: B1 chain with T68S, L69I, E70D
notes: source: E. coli Rosetta 2 (DE3) pLysS, purified (HisPur cobalt resin, 3C protease cleavage, Superdex 75); not shown: His6, N-terminal, cleaved
B3: T2 EBNA2_(348-422) motif 3 mt (PTLEP to ATAEA) (domain or fragment)
chain: B1 chain with P67A, L69A, P71A
notes: EBNA2 of type 2 Epstein-Barr virus (AG876), amino acids 348-422, motif 3 PTLEP_(414-418) mutated to ATAEA; also called T2 EBNA2348-422 m3 mt; source: E. coli Rosetta 2 (DE3) pLysS, purified (HisPur cobalt resin, 3C protease cleavage, Superdex 75); not shown: His6, N-terminal, cleaved
B4: type 2 EBNA2 motif 2 peptide (402-412) (peptide)
peptide: EPPFLFPSDWY
notes: source: synthetic peptide (Peptide Synthetics)
B5: type 2 EBNA2 polypeptide T2 EBNA2_(348-412) (domain or fragment)
chain: SMPQLSPVVSLHQGQGPENSPTPGPSTAGPVCRVTPSATPDISPIHEPESSDSEEPPFLFPSDWY
notes: also called type 2 EBNA2_(348-412); source: E. coli Rosetta 2 (DE3) pLysS, purified (cobalt resin, 3C protease cleavage, Superdex 75); not shown: His6, N-terminal, cleaved
B6: type 2 EBNA2 polypeptide T2 EBNA2_(348-422) (domain or fragment)
chain: B1 chain
notes: Monomer alone by SEC-MALS; also called T2 E2_(348-422); type 2 EBNA2_(348-422); source: E. coli Rosetta 2 (DE3) pLysS, purified (cobalt resin, 3C protease cleavage, Superdex 75); not shown: His6, N-terminal, cleaved
B7: EBNA2_(348-422) SD + m3 T1 (domain or fragment)
chain: B1 chain with S62D, T68S, L69I, E70D
notes: EBNA2 of type 2 Epstein-Barr virus (AG876), residues 348-422, with S409D and motif 3 PTLEP replaced by PSIDP; also called T2 EBNA2_(348-422) SD + m3 T1; type 2 EBNA2 double mutant (S409D, PTLEP to PSIDP); source: E. coli Rosetta 2 (DE3) pLysS, purified (cobalt resin, 3C protease cleavage, Superdex 75); not shown: His6, N-terminal, cleaved
B8: EBNA2_(348-422) SD + m3 mt (domain or fragment)
chain: B1 chain with S62D, P67A, L69A, P71A
notes: EBNA2 of type 2 Epstein-Barr virus (AG876), residues 348-422, with S409D and motif 3 PTLEP mutated to ATAEA; also called type 2 EBNA2 double mutant (S409D, PTLEP to ATAEA); source: E. coli Rosetta 2 (DE3) pLysS, purified (cobalt resin, 3C protease cleavage, Superdex 75); not shown: His6, N-terminal, cleaved
B9: T2 EBNA2_(348-422) SD mutant (S409D) (domain or fragment)
chain: B1 chain with S62D
notes: EBNA2 of type 2 Epstein-Barr virus (AG876), residues 348-422, serine to aspartate at position 409; text and methods say position 409; source: E. coli Rosetta 2 (DE3) pLysS, purified (cobalt resin, 3C protease cleavage, Superdex 75); not shown: His6, N-terminal, cleaved
B10: T2 EBNA2_(348-422) motif 3 mt (PTLEP to ATAEA) (domain or fragment)
chain: B1 chain with P67A, L69A, P71A
notes: EBNA2 of type 2 Epstein-Barr virus (AG876), residues 348-422, with motif 3 mutated from PTLEP to ATAEA; also called T2 E2 m3 mt; source: E. coli Rosetta 2 (DE3) pLysS, purified (cobalt resin, 3C protease cleavage, Superdex 75); not shown: His6, N-terminal, cleaved
B11: BS69 coiled-coil MYND domain (BS69_(CC-MYND), amino acids 480-602) (domain or fragment, human, UniProt Q15326 480-602, looked up)
chain: T1 sequence (looked up)
notes: BS69 (ZMYND11), human, amino acids 480-602 comprising the coiled-coil and MYND domains, amplified from pCI-BS69 (full length, isoform 1, 602 amino acids); Dimer by SEC-MALS; Expressed from pET49b+ as a GST-6xHis fusion; the tag was cleaved with 3C protease; also called BS69 CC-MYND domain; ZMYND11; source: E. coli Rosetta 2 (DE3) pLysS, purified (cobalt resin, 3C protease cleavage, GSTrap, …)
B12: type 2 EBNA2 motif 3 peptide (T2 EBNA2_(412-422)) (peptide)
peptide: YPPTLEPAELD
notes: EBNA2 of type 2 Epstein-Barr virus (AG876), residues 412-422, holding motif 3 (PTLEP 414-418); source: synthetic peptide (Peptide Synthetics)

What was measured:
[1] = biological target: T1, BS69 coiled-coil MYND domain …; assay: ITC; EBNA2 polypeptide (0.3 or 0.6 mM) titrated into 0.1 mM BS69_(CC-MYND) in the cell, 19 x 2.0 µl injections, 25°C, 20 mM Tris-HCl, 100 mM NaCl, 1 mM TCEP, pH 7.5; one-site (one event) model; n on monomer concentrations; mean of 3 experiments; settings: both partners purified
[2] = biological target: B11; assay: ITC; 1 mM EBNA2 peptide titrated into 0.1 mM BS69_(CC-MYND) in the cell, 25°C, 20 mM Tris-HCl, 100 mM NaCl, 1 mM TCEP, pH 7.5; one-site model with n fixed to 1; settings: both partners purified
[3] = biological target: B11; assay: ITC; EBNA2 polypeptide titrated into 0.1 mM BS69_(CC-MYND) in the cell, 19 x 2.0 μl injections, 25°C, 20 mM Tris-HCl, 100 mM NaCl, 1 mM TCEP, pH 7.5; one-site (one event) model; n calculated for monomeric proteins; settings: both partners purified
[4] = biological target: B11; assay: ITC; EBNA2 polypeptide (0.3 mM) titrated into 0.1 mM BS69_(CC-MYND) in the cell, 29 x 1.3 μl injections, 25°C, 20 mM Tris-HCl, 100 mM NaCl, 1 mM TCEP, pH 7.5; two-site (two event) model; settings: both partners purified
[5] = biological target: the molecule itself; assay: SEC-MALS; individual polypeptides, 5 mg/ml, Shodex KW403-4F column, 25°C, 20 mM Tris-HCl, 100 mM NaCl, 1 mM TCEP, pH 7.5

B1 gave a Kd [1] of 1.01 µM.

For B2, the Kd [1] was 1.9 µM and the “stoichiometry N” value [1] was 0.25.

B3 was tested, and the Kd [1] was 0.59 µM and the “stoichiometry N” value [1] was 0.31.

B4 showed a Kd [2] of 176 µM.

In the case of B5, the Kd [3] is reported as 1.21 µM, the dH [3] is reported as -22.5 kcal/mol and the “stoichiometry N” value [3] is reported as 0.33.

B6 was tested, and the “dH of the second binding event” value [4] was -1.59 kcal/mol, the dH [3] was -53.2 kcal/mol and the “stoichiometry N” value [3] was 0.15.

B7: binds [4].

B8: binds [4].

In the case of B9, the “dH of the second binding event” value [4] is reported as -7.65 kcal/mol.

In the case of B10, the dH [3] is reported as -25.7 kcal/mol and the “stoichiometry N” value [3] is reported as 0.3.

In the case of B11, the “stoichiometry N” value [5] is reported as 2.

EAPILFPDDWY [type 1 EBNA2 motif 2 peptide (435-445)] was tested, and the Kd [2] was 47.7 µM.

In the case of B12, the Kd [2] is reported as 219 µM.
